Assay results published in patent publication US9650648.

Tests used:
Assay in all cases: cell_activity
[1] = system: ZFN 44945 (BCL11A-XL) (synthetic); conditions: pair with 44944; K562
[2] = system: ZFN 43544 (beta-globin IVS1.1) (synthetic); conditions: pair with 43545; CD34+ cells
[3] = system: ZFN 36021 (KLF1 exon 1) (synthetic); conditions: pair with 36004; CD34+ cells; 2.2X gamma mRNA
[4] = system: ZFN 34678 (BCL11A exon 4) (synthetic); conditions: pair with 34642; CD34+ cells; 3.52X gamma mRNA
[5] = system: TALEN 102321 (gamma globin promoter) (synthetic); conditions: pair with 102316; K562, Cel-I
[6] = system: TALEN 102320 (gamma globin promoter) (synthetic); conditions: pair with 102315; K562, Cel-I
[7] = system: TALEN 102318 (gamma globin promoter) (synthetic); conditions: pair with 102314; K562, Cel-I; 2.14X gamma mRNA in CD34+
[8] = system: ZFN 43545 (beta-globin IVS1.1) (synthetic); conditions: pair with 43544; CD34+ cells
[9] = system: ZFN 34642 (BCL11A exon 4) (synthetic); conditions: pair with 34678; CD34+ cells; 3.52X gamma mRNA
[10] = system: ZFN 34363 (gamma globin -175) (synthetic); conditions: pair with 34360; K562, Cel-I
[11] = system: TALEN 101301 (BCL11A exon 4) (synthetic); conditions: pair with 101304; CD34+ cells; 2.31X gamma mRNA
[12] = system: ZFN 44493 (BCL11A exon 2) (synthetic); conditions: pair with 39172; K562
[13] = system: ZFN 44489 (BCL11A exon 2) (synthetic); conditions: pair with 39172; K562
[14] = system: ZFN 45081 (BCL11A exon 2) (synthetic); conditions: pair with 39172; K562
[15] = system: ZFN 44490 (BCL11A exon 2) (synthetic); conditions: pair with 39172; K562
[16] = system: ZFN 39145 (BCL11A exon 2) (synthetic); conditions: pair with 39172; CD34+ cells; 3.65X gamma mRNA
[17] = system: ZFN 44944 (BCL11A-XL) (synthetic); conditions: pair with 44945; K562
[18] = system: ZFN 44946 (BCL11A-XL) (synthetic); conditions: pair with 44947; K562
[19] = system: ZFN 44947 (BCL11A-XL) (synthetic); conditions: pair with 44946; K562
[20] = system: ZFN 44889 (BCL11A-XL) (synthetic); conditions: pair with 44888; K562
[21] = system: ZFN 43490 (BCL11A exon 2) (synthetic); conditions: pair with 39145; K562
[22] = system: ZFN 45148 (BCL11A exon 2) (synthetic); conditions: pair with 39145; K562; printed as 41548 in Table 1B, 45148 in Table 1A
[23] = system: ZFN 44642 (BCL11A exon 2) (synthetic); conditions: pair with 39145; K562
[24] = system: ZFN 45147 (BCL11A exon 2) (synthetic); conditions: pair with 39145; K562; printed as 41547 in Table 1B, 45147 in Table 1A
[25] = system: ZFN 39172 (BCL11A exon 2) (synthetic); conditions: pair with 39145; CD34+ cells; 3.65X gamma mRNA
[26] = system: ZFN 44910 (BCL11A-XL) (synthetic); conditions: pair with 44911; K562
[27] = system: TALEN 101292 (BCL11A exon 2) (synthetic); conditions: pair with 101291; K562, Cel-I
[28] = system: ZFN 34400 (gamma globin -175) (synthetic); conditions: pair with 34398; K562, Cel-I
[29] = system: ZFN 34365 (gamma globin -175) (synthetic); conditions: pair with 31160; K562; 45.22% in CD34+; 1.63X gamma mRNA
[30] = system: TALEN 101291 (BCL11A exon 2) (synthetic); conditions: pair with 101292; K562, Cel-I
[31] = system: ZFN 36085 (KLF1 exon 2) (synthetic); conditions: pair with 36071; CD34+ cells; 3.17X gamma mRNA
[32] = system: ZFN 44905 (BCL11A-XL) (synthetic); conditions: pair with 44904; K562
[33] = system: ZFN 44911 (BCL11A-XL) (synthetic); conditions: pair with 44910; K562
[34] = system: ZFN 43865 (gamma globin -110) (synthetic); conditions: pair with 43852; CD34+ cells
[35] = system: ZFN 34574 (gamma globin -110) (synthetic); conditions: pair with 34539; CD34+ cells; 5.38X gamma mRNA
[36] = system: ZFN 36004 (KLF1 exon 1) (synthetic); conditions: pair with 36021; CD34+ cells; 2.2X gamma mRNA
[37] = system: ZFN 36071 (KLF1 exon 2) (synthetic); conditions: pair with 36085; CD34+ cells; 3.17X gamma mRNA
[38] = system: TALEN 102314 (gamma globin promoter) (synthetic); conditions: pair with 102318; K562, Cel-I; 2.14X gamma mRNA in CD34+
[39] = system: TALEN 102315 (gamma globin promoter) (synthetic); conditions: pair with 102320; K562, Cel-I
[40] = system: TALEN 102316 (gamma globin promoter) (synthetic); conditions: pair with 102321; K562, Cel-I
[41] = system: TALEN 101304 (BCL11A exon 4) (synthetic); conditions: pair with 101301; CD34+ cells; 2.31X gamma mRNA
[42] = system: TALEN 102566 (gamma globin -110) (synthetic); conditions: pair with 102568; CD34+ cells, MiSeq; 6.25X gamma mRNA
[43] = system: ZFN 31160 (gamma globin -175) (synthetic); conditions: pair with 34365; K562; 45.22% in CD34+; 1.63X gamma mRNA
[44] = system: ZFN 44904 (BCL11A-XL) (synthetic); conditions: pair with 44905; K562
[45] = system: ZFN 34539 (gamma globin -110) (synthetic); conditions: pair with 34574; CD34+ cells; 5.38X gamma mRNA
[46] = system: ZFN 43852 (gamma globin -110) (synthetic); conditions: pair with 43865; CD34+ cells
[47] = system: ZFN 34360 (gamma globin -175) (synthetic); conditions: pair with 34363; K562, Cel-I
[48] = system: ZFN 44888 (BCL11A-XL) (synthetic); conditions: pair with 44889; K562
[49] = system: TALEN 102568 (gamma globin -110) (synthetic); conditions: pair with 102566; CD34+ cells, MiSeq; 6.25X gamma mRNA
[50] = system: ZFN 34398 (gamma globin -175) (synthetic); conditions: pair with 34400; K562, Cel-I

Sequence: AAGCTCACCAGGCACATGAAAACGCATG (double strand) [BCL11A-XL 44945 site]
- activity [1]: 24 % indels

Sequence: AATCTGCCCAGGGCCTCACCACCAACTT (double strand) [HBB IVS1.1 43544 site]
- activity [2]: 52.6 % NHEJ

Sequence: ACACACAGGATGACTTCCTCAAGGTGGG (double strand) [KLF1 exon 1 36021 site]
- activity [3]: 44.4 % indels

Sequence: ATATTGCAGACAATAACCCCTTTAACCT (double strand) [BCL11A exon 4 34678 site]
- activity [4]: 82.2 % indels

Sequence: ATATTTGCATTGAGATAG (double strand) [HBG TALEN 102321 site]
- activity [5]: 46.6 % NHEJ

Sequence: ATATTTGCATTGAGATAGT (double strand) [HBG TALEN 102320 site]
- activity [6]: 47.9 % NHEJ

Sequence: ATATTTGCATTGAGATAGTGT (double strand) [HBG TALEN 102318 site]
- activity [7]: 41.6 % NHEJ

Sequence: ATCAAGGTTACAAGACAGGTTTAAGGAG (double strand) [HBB IVS1.1 43545 site]
- activity [8]: 52.6 % NHEJ

Sequence: ATCCCATGGAGAGGTGGCTGGGAAGGAC (double strand) [BCL11A exon 4 34642 site]
- activity [9]: 82.2 % indels

Sequence: ATCTGTCTGAAACGGTCCCTGGCTAAAC (double strand) [HBG -175 34363 site]
- activity [10]: 39 % NHEJ

Sequence: ATGTCCTTCCCAGCCACCTCT (double strand) [BCL11A exon 4 TALEN 101301 site]
- activity [11]: 35.7 % indels

Sequence: CCCAACGGGCCGTGGTCTGGTTCATCAT (double strand) [BCL11A exon 2 site, SEQ 170]
- activity [12]: 25.7 % indels
- activity [13]: 24.3 % indels
- activity [14]: 27.8 % indels
- activity [15]: 29.4 % indels
- activity [16]: 69.8 % indels

Sequence: CTACTCTGGGCACAGGCATAGTTGCACA (double strand) [BCL11A-XL 44944/44946 site]
- activity [17]: 24 % indels
- activity [18]: 34.2 % indels

Sequence: CTCACCAGGCACATGAAAACGCATGGCC (double strand) [BCL11A-XL 44947 site]
- activity [19]: 34.2 % indels

Sequence: CTCACTGTCCACAGGAGAAGCCACACGG (double strand) [BCL11A-XL 44889 site]
- activity [20]: 35.1 % indels

Sequence: CTCCAGAAGGGGATCATGACCTCCTCAC (double strand) [BCL11A exon 2 site, SEQ 160]
- activity [21]: 19.9 % indels
- activity [22]: 42.3 % indels
- activity [23]: 38.5 % indels
- activity [24]: 35.6 % indels
- activity [25]: 69.8 % indels

Sequence: CTCCTGTGGACAGTGAGATTGCTACAGT (double strand) [BCL11A-XL 44910 site]
- activity [26]: 36.4 % indels

Sequence: CTCGATAAAAATAAGAATGT (double strand) [BCL11A exon 2 TALEN 101292 site]
- activity [27]: 0.8 % indels

Sequence: CTGTCTGAAACGGTCCCTGGCTAAACTC (double strand) [HBG -175 34400/34365 site]
- activity [28]: 54 % NHEJ
- activity [29]: 53 % NHEJ

Sequence: CTGTGGGCAGTGCCAGATGA (double strand) [BCL11A exon 2 TALEN 101291 site]
- activity [30]: 0.8 % indels

Sequence: CTTCTCGGGCCCGGAGCCCGGTGGCGCG (double strand) [KLF1 exon 2 36085 site]
- activity [31]: 22.6 % indels

Sequence: GAGAAGCCACACGGGCGAAAGGCCTTAT (double strand) [BCL11A-XL 44905 site]
- activity [32]: 25.4 % indels

Sequence: GCCACACGGGCGAAAGGCCTTATAAATG (double strand) [BCL11A-XL 44911 site]
- activity [33]: 36.4 % indels

Sequence: GCCTTGACAAGGCAAACTTGACCAATAG (double strand) [HBG -110 34574/43865 site]
- activity [34]: 56.1 % NHEJ
- activity [35]: 45.7 % NHEJ

Sequence: GGGAAGGGGCCCAGGGCGGTCAGTGTGC (double strand) [KLF1 exon 1 36004 site]
- activity [36]: 44.4 % indels

Sequence: GGTGAGGAGGAGATCCAGGTCCCAGGTG (double strand) [KLF1 exon 2 36071 site]
- activity [37]: 22.6 % indels

Sequence: GTATCCTCTTGGGGGCC (double strand) [HBG TALEN 102314 site]
- activity [38]: 41.6 % NHEJ

Sequence: GTATCCTCTTGGGGGCCC (double strand) [HBG TALEN 102315 site]
- activity [39]: 47.9 % NHEJ

Sequence: GTATCCTCTTGGGGGCCCC (double strand) [HBG TALEN 102316 site]
- activity [40]: 46.6 % NHEJ

Sequence: GTTAAAGGGGTTATTGTCT (double strand) [BCL11A exon 4 TALEN 101304 site]
- activity [41]: 35.7 % indels

Sequence: GTTGGCCAGCCTTGCCTTGAC (double strand) [HBG -110 TALEN 102566 site]
- activity [42]: 51.4 % NHEJ

Sequence: TATTTGCATTGAGATAGTGTGGGGAAGG (double strand) [HBG -175 31160 site]
- activity [43]: 53 % NHEJ

Sequence: TGGACAGTGAGATTGCTACAGTTCTTGA (double strand) [BCL11A-XL 44904 site]
- activity [44]: 25.4 % indels

Sequence: TGGTCAAGGCAAGGCTGGCCAACCCATG (double strand) [HBG -110 34539/43852 site]
- activity [45]: 45.7 % NHEJ
- activity [46]: 56.1 % NHEJ

Sequence: TTGCATTGAGATAGTGTGGGGAAGGGGC (double strand) [HBG -175 34360 site]
- activity [47]: 39 % NHEJ

Sequence: TTGCTACAGTTCTTGAAGACTTTCCCAC (double strand) [BCL11A-XL 44888 site]
- activity [48]: 35.1 % indels

Sequence: TTGGTCAAGTTTGCCTTGTCA (double strand) [HBG -110 TALEN 102568 site]
- activity [49]: 51.4 % NHEJ

Sequence: TTTGCATTGAGATAGTGTGGGGAAGGGG (double strand) [HBG -175 34398 site]
- activity [50]: 54 % NHEJ
